Data from patent US20240101668A1 (WUGEN, published 2024).
Where a chain is given by its changes, count along the chain named.

B1: Polypeptide No. 31 (scFv, V domains shown)
VH: QVQLVQSGAEVKKPGSSVKVSCKASGGTFSTYAITWVRQAPGQGLEWMGGIIPIVGRANYAQKFQGRVTITADESTSTAYMELSSLRSEDTAVYYCARSGGHDLDYWGQGTLVTVSS
VL: DIQMTQSPSSLSASVGDRVTITCRASQGIGNDLGWYQQKPGKAPKLLIYGASSVQSGVPSRFSGSGSGTDFTLTISSLQPEDFATYYCQQSYSTPITFGQGTRLEIKR
notes: scFv
B2: Polypeptide No. 42 (scFv, V domains shown)
VH: QVQLVQSGAEVKKPGASVKVSCKASGYTFTDYFMHWVRQAPGQGLEWMGWINPNSGNTGYAQKFQGRVTMTRDTSTSTVYMELSSLRSEDTAVYYCARLNDYGDYGGPATLDYWGQGTLVTVSS
VL: B1 VL with G30S, D32N, G34N, G50A, V54L, I96P, R103K
notes: scFv
B3: Polypeptide No. 35 (scFv, V domains shown)
VH: QVQLVQSGAEVKKPGASVKVSCKASGYTFTDYYMHWVRQAPGQGLEWMGIINPSGGSTRYAQKFQGRVTMTRDTSTSTVYMELSSLRSEDTAVYYCARVDGRRWLRSDYWGQGTLVTVSS
VL: B1 VL with G30R, G34A, G50A, S53T, V54L, S56N, I96W, R103K, L104V
notes: scFv
B4: Polypeptide No. 36 (scFv, V domains shown)
VH: QVQLVQSGAEVKKPGASVKVSCKASGGTFSSYAISWVRQAPGQGLEWLGIISPSGRSAGYGRKFQGRVTMTRDTSTSTVYMELSSLRSEDTAVYYCARTDYGGHKWYFDLWGRGTLVTVSS
VL: DIQMTQSPSSLSASVGDRVTITCQASQGINNYLNWYQQKPGKAPKLLIYAASTLQRGVPSRFSGSGSGTDFTLTISSLQPEDFATYYCQQSYQTPLTFGGGTKVEIKR
notes: scFv
B5: Polypeptide No. 41 (scFv, V domains shown)
VH: QVQLVQSGAEVKKPGASVKVSCKASGYTFPNYGISWVRQAPGQGLEWMGWINPNSGGTKYAQRFQGRVTMTRDTSTSTVYMELSSLRSEDTAVYYCARDRDILTGYYHFDYWGQGTLVTVSS
VL: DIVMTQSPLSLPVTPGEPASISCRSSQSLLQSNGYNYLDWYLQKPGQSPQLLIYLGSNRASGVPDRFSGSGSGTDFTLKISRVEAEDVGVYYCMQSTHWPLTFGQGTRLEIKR
notes: scFv
B6: Polypeptide No. 32 (scFv, V domains shown)
VH: EVQLLESGGGLVQPGGSLRLSCAASGFTFSSYGMHWVRQAPGKGLEWVSSISGSGDTTYYADSVKGRFTISRDNSKNTLYLQMNSLRAEDTAVYYCARDNPYGDYGGSFDYWGQGTLVTVSS
VL: EIVMTQSPATLSVSPGERATLSCRASQSVSSSYLAWYQQKPGQAPRLLIYATSTRATGIPARFSGSGSGTEFTLTISSLQSEDFAVYYCQQYGSLPLTFGQGTKVEIKR
notes: scFv
B7: Polypeptide No. 33 (scFv, V domains shown)
VH: QVQLVQSGAEVKKPGASVKVSCKASGYTFTSYYMHWVRQAPGQGLEWMGIIDPSGGSTNYAQKFQGRVTMTRDTSTSTVYMELSSLRSEDTAVYYCARDYYGSGSYYGLDYWGRGTLVTVSS
VL: DIQMTQSPSSLSASVGDRVTITCRASQGISNNLNWYQQKPGKAPKLLIYDASNLETGVPSRFSGSGSGTDFTLTISSLQPEDFATYYCQQANSFPLTFGPGTKVDIKR
notes: scFv
B8: Polypeptide No. 39 (scFv, V domains shown)
VH: EVQLLESGGGLVQPGGSLRLSCAASGFTFRNYGMGWVRQAPGKGLEWVSAISGSGGSTYYADSVKGRFTISRDNSKNTLYLQMNSLRAEDTAVYYCARVKFYGMDVWGQGTTVTVSS
VL: B7 VL with N32D, N34A, D50G, L96F
notes: scFv
B9: Polypeptide No. 40 (scFv, V domains shown)
VH: QVQLVQSGAEVKKPGASVKVSCKASGYTFTDYHMHWVRQAPGQGLEWMGWMSPNSGNTGYAQNFQGRVTMTRDTSTSTVYMELSSLRSEDTAVYYCARADYYGSDYVKFDYWGQGTLVTVSS
VL: DIQMTQSPSSLSASVGDRVTITCRVSQGISSYLNWYQQKPGKAPKLLIYEASTLESGVPSRFSGSGSGTDFTLTISSLQPEDFATYYCQQGYSTPPTFGQGTKVEIKR
notes: scFv

Molecular target: T1, huCD33-R69-His recombinant protein (human, UniProt P20138 18-259)
T1 construct: extracellular domain
Assay: BLI
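For result in this document: scFvs from periplasmic extracts captured on biosensors via anti-V5 antibody, exposed to recombinant huCD33 variants for 2 min, 5 min dissociation, scored as binding, no binding or ambiguous.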

T1 sequence (P20138 18-259): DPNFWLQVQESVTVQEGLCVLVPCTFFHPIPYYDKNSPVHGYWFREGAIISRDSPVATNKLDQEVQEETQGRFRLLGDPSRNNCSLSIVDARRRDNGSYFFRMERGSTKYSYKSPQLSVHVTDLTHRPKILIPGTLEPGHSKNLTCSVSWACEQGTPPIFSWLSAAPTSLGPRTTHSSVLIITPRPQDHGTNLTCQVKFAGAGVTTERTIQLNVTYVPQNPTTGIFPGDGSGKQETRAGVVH

binding result | Binder
no binding | B1
no binding | B2
no binding | B3
no binding | B4
no binding | B5
no binding | B6
no binding | B7
no binding | B8
no binding | B9

Molecular target: T2, huCD33-G69-Fc recombinant protein (human, UniProt P20138 18-259)
T2 construct: extracellular domain; also called CD33 R69G
Assay: BLI

T2 sequence (P20138 18-259 R69G): as the sequence (P20138 18-259) above, with R52G counted along it

binding result | Binder
binds | B1
binds | B2
binds | B3
binds | B4
binds | B5
binds | B6
binds | B7
binds | B8
binds | B9

Molecular target: T3, huCD33-R69 stably expressed on Jurkat cells (human, UniProt P20138 18-364)
T3 construct: whole, on cells; >200,000 receptors per cell; also called CD33 WT; CD33^ARG69
Assay: FACS on cells;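 also: fixed Jurkat cells bearing either CD33 variant, barcoded by dye, exposed to myc-tagged scFv periplasmic extracts, detected with anti-myc PE antibody and read by flow cytometry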
Procedure: (§1) Jurkat cells were engineered to stably express either the huCD33-R69 or huCD33-G69 variant at >200,000 receptors per cell. Parental, huCD33-R69, and huCD33-G69 Jurkat cell lines were stained with differing levels of CellTrace Violet Cell Proliferation Kit (ThermoFisher, cat. #C34557) to barcode each cell line. Barcoded Jurkat cell lines were fixed with paraformaldehyde and incubated with myc-labeled scFv periplasmic extracts and a secondary anti-myc PE-conjugated monoclonal antibody. Appropriate positive and negative controls were used. Stained cells were analyzed by flow cytometry (CytoFLEX, Beckman Coulter, Inc.) and binding was assessed by change in PE mean fluorescence intensity (MFI) of the barcoded cell populations.

T3 sequence (P20138 18-364): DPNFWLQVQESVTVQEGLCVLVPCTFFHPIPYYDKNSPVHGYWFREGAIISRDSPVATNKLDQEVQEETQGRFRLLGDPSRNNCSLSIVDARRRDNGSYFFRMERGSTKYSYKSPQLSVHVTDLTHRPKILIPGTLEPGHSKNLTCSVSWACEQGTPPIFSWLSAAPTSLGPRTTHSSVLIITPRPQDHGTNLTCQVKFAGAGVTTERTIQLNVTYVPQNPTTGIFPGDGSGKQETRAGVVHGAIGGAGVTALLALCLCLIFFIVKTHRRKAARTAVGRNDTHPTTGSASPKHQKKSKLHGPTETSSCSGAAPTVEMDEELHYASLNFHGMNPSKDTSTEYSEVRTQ

geometric mean MFI fold change over Jurkat parental [fold] | Binder
< 2 | B1
< 2 | B2
< 2 | B3
< 2 | B4
< 2 | B5
< 2 | B6
< 2 | B7
< 2 | B8
< 2 | B9

Molecular target: T4, huCD33-G69 stably expressed on Jurkat cells (human, UniProt P20138 18-364)
T4 construct: whole, on cells; >200,000 receptors per cell; also called CD33 Mutant; CD33 R69G
Assay: FACS on cells;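 also: fixed Jurkat cells bearing either CD33 variant, barcoded by dye, exposed to myc-tagged scFv periplasmic extracts, detected with anti-myc PE antibody and read by flow cytometry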
Procedure: as §1

T4 sequence (P20138 18-364 R69G): as the sequence (P20138 18-364) above, with R52G counted along it

geometric mean MFI fold change over Jurkat parental [fold] | Binder
10 to 30 | B1
10 to 30 | B2
2 to 10 | B3
2 to 10 | B4
2 to 10 | B5
10 to 30 | B6
> 30 | B7
10 to 30 | B8
10 to 30 | B9
